Results on 167 variants are retold here after the RNAGym collection of RNA variant scans (doi:10.7554/elife.80360).

B1: CPEB3 Ribozyme (parent)
chain: GGGGGCCACAGCAGAAGCGUUCACGUCGCGGCCCCUGUCAGAUUCUGGUGAAUCUGCGAAUUCUGCUGU

In this series the parent is B1. The experiment in a line: self-cleavage, relative activity (ratio to wild type); higher = more cleavage; co-transcriptional.
On to G1A U38C, for which the self-cleavage came out at 0.0492. For G1C G37C the value was 0.125; for G1C G37U, 0.101.

On to G1U, for which the self-cleavage turned out to be 0.11. Regarding G1A, the self-cleavage came to 0.104.

G1C: the self-cleavage was 0.219.

In the case of G1C A15C, the self-cleavage was 0.266.

For the variant G1C A15G, the self-cleavage came out at 0.228. For G1C G58C, the self-cleavage was determined as 0.267. For the variant G1C G58A, the self-cleavage stood at 0.172. Regarding G1C G58U, the self-cleavage turned out to be 0.248. In the case of G1C G25A, the self-cleavage is 0.0736. Take G1C G25C: the self-cleavage was 0.103. For G1C G25U, the self-cleavage is 0.0853. For G1C U62G the value was 0.177. For G1C U62A, the self-cleavage stood at 0.279.

Turning to G1A G68U, the self-cleavage was 0.159. In the case of G1A G68C, the self-cleavage turned out to be 0.222.

In the case of G1A G68A, the self-cleavage amounted to 0.136.

As for G1A A10C, the self-cleavage came to 0.117. As to G1C U36A, the self-cleavage was 0.0531. Take G1C U36C: the self-cleavage turned out to be 0.177. Consider G1C G68A, for which the self-cleavage worked out at 0.304. On to G1C G68C, for which the self-cleavage came to 0.219. G1C G68U: the self-cleavage turned out to be 0.297. With G1C G14U, the self-cleavage worked out at 0.164. As to G1C G14A, the self-cleavage is 0.152.

On to G1U C6A, for which the self-cleavage was 0.0884.

On to G1U C6G, for which the self-cleavage stood at 0.126. Consider G1U C6U, for which the self-cleavage came out at 0.0906.

For G1A A15U, the self-cleavage worked out at 0.105. For G1A A15C, the self-cleavage came out at 0.113. As for G1A A15G, the figure is 0.159.

On to G1C A10G, for which the self-cleavage came to 0.21.

G1U C57G: the self-cleavage was 0.0901.

As to G1C A60C, the self-cleavage came out at 0.0756. In the case of G1C A60G, the self-cleavage came to 0.273. Regarding G1A U64G, the self-cleavage stood at 0.0694.

As to G1A U64A, the self-cleavage is 0.134. For G1A G14C, the self-cleavage amounted to 0.0574.

Consider G1A G14A, for which the self-cleavage worked out at 0.0754.

In the case of G1A C32A, the self-cleavage is 0.0486. As for G1A C32G, the figure is 0.0331. For G1A C32U the value was 0.12; for G1A C63G, 0.0342; for G1A C63A, 0.1. As for G1A C63U, the figure is 0.0639.

In the case of G1U C35U, the self-cleavage is 0.113. G1U C35A: the self-cleavage was determined as 0.0801.

Consider G1A U20C, for which the self-cleavage was found to be 0.0855.

As to G1A U20G, the self-cleavage came out at 0.0728. In the case of G1A U20A, the self-cleavage was 0.0538. For G1U A13U the value was 0.122.

On to G1C U20C, for which the self-cleavage amounted to 0.098. Turning to G1C U20G, the self-cleavage stood at 0.131. In the case of G1C C57G, the self-cleavage was determined as 0.104. As for G1C C57A, the self-cleavage was determined as 0.116.

For G1C C45G, the self-cleavage turned out to be 0.182. G1C C45U: the self-cleavage was found to be 0.24. As for G1C C45A, the figure is 0.252. With G1C G65U, the self-cleavage is 0.212. For G1C G50U, the self-cleavage came out at 0.169. For G1A C45U the value was 0.0709; for G1A C45G, 0.0789; for G1C U21C, 0.184.

Turning to G1C U21G, the self-cleavage is 0.244. For the variant G1C G56A, the self-cleavage was found to be 0.223. As for G1C G56C, the self-cleavage amounted to 0.186. G1C C34U: the self-cleavage was determined as 0.236. As for G1C C34A, the figure is 0.152; as for G1C C34G, 0.159; as for G1A G41C, 0.0331. For G1A G41U the value was 0.0947. For G1C G47A the value was 0.242. Turning to G1C G47U, the self-cleavage stood at 0.268.

Consider G1C G47C, for which the self-cleavage was 0.213.

In the case of G1A U46A, the self-cleavage worked out at 0.134. G1A U46G: the self-cleavage stood at 0.0453.

G1A U46C: the self-cleavage came out at 0.0905.

Regarding G1C U55C, the self-cleavage was 0.167. Take G1C U55A: the self-cleavage amounted to 0.189. On to G1C U49C, for which the self-cleavage was found to be 0.116. As for G1C U49G, the figure is 0.275; as for G1A C54A, 0.0906; as for G1A C54G, 0.0801. As to G1A U67C, the self-cleavage was found to be 0.121.

Turning to G1A G50A, the self-cleavage is 0.114. For G1A G50U the value was 0.0729. For G1A G17A, the self-cleavage stood at 0.0759.

As for G1A G17U, the self-cleavage worked out at 0.047. Regarding G1A G48A, the self-cleavage worked out at 0.0895. As for G1A G48U, the figure is 0.045; as for G1C C27A, 0.211; as for G1C C27G, 0.124. Regarding G1C C27U, the self-cleavage was found to be 0.131. As to G1C C32U, the self-cleavage turned out to be 0.327. For G1C C32A, the self-cleavage was found to be 0.279. In the case of G1A C39U, the self-cleavage worked out at 0.0531.

Turning to G1C U53G, the self-cleavage amounted to 0.232. As for G1C U53A, the figure is 0.225; as for G1U C33A, 0.176; as for G1A C9A, 0.145.

For the variant G1A C9U, the self-cleavage amounted to 0.19. G1A C9G: the self-cleavage was found to be 0.0894. Consider G1C C33G, for which the self-cleavage was determined as 0.118. As to G1C C33U, the self-cleavage worked out at 0.282. With G1C C33A, the self-cleavage is 0.197. As for G1C A16U, the figure is 0.159. As for G1C A16G, the figure is 0.254; as for G1A U26A, 0.077; as for G1A U26C, 0.138. In the case of G1A U26G, the self-cleavage came out at 0.0674. As for G1C U38G, the self-cleavage stood at 0.112. Regarding G1C U38C, the self-cleavage came out at 0.231. Turning to G1A U61C, the self-cleavage is 0.0531. With G1A A40U, the self-cleavage came out at 0.0506.

Consider G1A A40C, for which the self-cleavage turned out to be 0.028. For G1C A52U the value was 0.201; for G1C A52G, 0.24; for G1C A52C, 0.2. Take G1A A16G: the self-cleavage was 0.0235. In the case of G1U A23U, the self-cleavage worked out at 0.108. As for G1C C63A, the self-cleavage came to 0.199. As for G1C C63U, the self-cleavage came to 0.164. With G1C G4A, the self-cleavage amounted to 0.225. For G1C G4C, the self-cleavage is 0.216. Consider G1C G11C, for which the self-cleavage stood at 0.165.

In the case of G1C G11U, the self-cleavage came out at 0.164. Consider G1C G11A, for which the self-cleavage amounted to 0.14. As for G1C C54G, the self-cleavage turned out to be 0.321. Turning to G1C U26G, the self-cleavage was 0.152. With G1C U26C, the self-cleavage is 0.162. Turning to G1A U69G, the self-cleavage was determined as 0.23. On to G1A U69A, for which the self-cleavage is 0.0727. For G1A U69C the value was 0.187; for G1U A15G, 0.191. As for G1U A15C, the figure is 0.136. For G1C G31U, the self-cleavage was 0.266. On to G1C G31C, for which the self-cleavage was 0.0643. On to G1C G31A, for which the self-cleavage turned out to be 0.272. Consider G1A U36C, for which the self-cleavage was 0.0487. On to G1A U36G, for which the self-cleavage is 0.0321. For G1A U36A, the self-cleavage came out at 0.0492. For G1A G28U the value was 0.0362; for G1A G28C, 0.0192.

For the variant G1C A51C, the self-cleavage stood at 0.149.

G1C A51U: the self-cleavage was found to be 0.192.

As for G1C G5U, the self-cleavage is 0.114. For the variant G1A C57U, the self-cleavage amounted to 0.0557. In the case of G1A C57A, the self-cleavage stood at 0.0488. Take G1A C57G: the self-cleavage worked out at 0.0693. For the variant G1A A52U, the self-cleavage worked out at 0.0595.

As to G1A A52G, the self-cleavage was 0.0619. Regarding G1A A52C, the self-cleavage was 0.113. Take G1U A16C: the self-cleavage was found to be 0.022. For G1C G3A, the self-cleavage came to 0.174. G1C G3U: the self-cleavage was 0.0766. On to G1A C12G, for which the self-cleavage came to 0.0843. For the variant G1A C12A, the self-cleavage came to 0.0768.

In the case of G1A C29U, the self-cleavage came out at 0.0423. As for G1A C29G, the figure is 0.0465; as for G1C A13G, 0.183; as for G1C A13U, 0.155. For the variant G1C A13C, the self-cleavage was 0.143. Take G1A A59G: the self-cleavage stood at 0.167. Regarding G1A A59C, the self-cleavage amounted to 0.0603.

As for G1A A59U, the self-cleavage is 0.0722.
